Assay results: patent publication US20130273020A1, “ANTIFUNGAL COMPOSITION” (COMVITA NEW ZEALAND LIMITED, priority 2010, published 2013)

How the values were obtained:
Format in all cases: cell-based
[1] = test system: Candida albicans; assay: Candida albicans growth curves at 28° C. by absorbance (540 nm), percentage inhibition vs media alone (Examples 2 and 3); conditions: lactoferrin used in isolation, 0.2% and 0.6% w/v; FIG. 5
Procedure: A further experiment was completed measuring the growth curves of Candida albicans grown at 28° C. measured by absorbance (540 nm). […] Catalase was added to remove any confounding effects from hydrogen peroxide. As may be appreciated, the peroxide effect can vary between and within honeys giving rise to poor results that are difficult to interpret. Removal of the peroxide effect gives clearer result. It should be noted that a lower growth temperature than usual was used to prevent filamentous growth, which is an artifact of these Candida assays. The results found were clean easily measurable results and were verified under a microscope to be accurate. A further experiment was completed measuring the percentage inhibition expressed as a proportion of Candida albicans growth in media alone. […] Catalase was added to remove the peroxide effect noted above.

[2] = test system: Candida albicans; assay: Candida albicans broth microtitre plate growth assay, absorbance at 650 nm, 28° C. (Example 4); conditions: honey alone (10% w/v, catalase) or lactoferrin alone (2.5-10 mg/ml); FIG. 6
Procedure: A further set of Candida albicans repeat trials were completed where the growth of Candida albicans cultures in broth was measured when subjected to a 10% w/v manuka honey with catalase and lactoferrin treatments ranging from 2.5-10 mg/ml. To prevent filamentous growth, the assay temperature was 28° C. as used previously. The assay was a broth microtitre plate set-up. Growth was measured by absorbance at 650 nm. Catalase was added to remove the peroxide effect noted above.

[3] = test system: Candida albicans; assay: Candida albicans growth by optical density, every 2 hrs up to 24 hrs (Example 1); conditions: single component alone, FIGS. 1 and 2
Procedure: In this example, a manuka honey was mixed with lactoferrin at varying concentrations and the degree of Candida albicans growth was measured and compared to each of the individual components alone. Samples of honey alone being a manuka honey with a UMF rating of ˜15 were collected. The honey was diluted with distilled water to honey concentrations of 12.5, 11.25, 10, 8.75, 7.5 and 0% (w/v). Samples of lactoferrin alone were also collected and similarly diluted with distilled water to concentrations of 5 mg/mL (5%), 4.5 mg/mL (4.5%), 4 mg/mL (4%), 3.5 mg/mL (3.5%), 3 mg/mL (3%) and 0% (w/v). Mixed samples were then produced using honey concentrations of 12.5, 11.25, 10, 8.75, 7.5 and 0% (w/v) along with lactoferrin at a concentration of 5 mg/mL of lactoferrin. Four replications were completed for each of the samples. Microbial growth for each of the samples was then measured every 2 hrs continuously for up to 24 hrs, determined by measuring the optical density of the mixture.

B1: lactoferrin (protein, UniProt P02788 20-710, looked up)
Lactotransferrin: GRRRSVQWCAVSQPEATKCFQWQRNMRKVRGPPVSCIKRDSPIQCIQAIAENRADAVTLDGGFIYEAGLAPYKLRPVAAEVYGTERQPRTHYYAVAVVKKGGSFQLNELQGLKSCHTGLRRTAGWNVPIGTLRPFLNWTGPPEPIEAAVARFFSASCVPGADKGQFPNLCRLCAGTGENKCAFSSQEPYFSYSGAFKCLRDGAGDVAFIRESTVFEDLSDEAERDEYELLCPDNTRKPVDKFKDCHLARVPSHAVVARSVNGKEDAIWNLLRQAQEKFGKDKSPKFQLFGSPSGQKDLLFKDSAIGFSRVPPRIDSGLYLGSGYFTAIQNLRKSEEEVAARRARVVWCAVGEQELRKCNQWSGLSEGSVTCSSASTTEDCIALVLKGEADAMSLDGGYVYTAGKCGLVPVLAENYKSQQSSDPDPNCVDRPVEGYLAVAVVRRSDTSLTWNSVKGKKSCHTAVDRTAGWNIPMGLLFNQTGSCKFDEYFSQSCAPGSDPRSNLCALCIGDEQGENKCVPNSNERYYGYTGAFRCLAENAGDVAFVKDVTVLQNTDGNNNEAWAKDLKLADFALLCLDGKRKPVTEARSCHLAMAPNHAVVSRMDKVERLKQVLLHQQAKFGRNGSDCPDKFCLFQSETKNLLFNDNTECLARLHGKTTYEKYLGPQYVAGITNLKKCSTSPLLEACEFLRK
notes: metal chelator that scavenges free transition metal ions, specifically iron
- percentage inhibition as a proportion of growth in media alone [1]: negligible effects
- inhibition of growth [2]: minimal inhibition
- difference to controls without honey or lactoferrin after 24 hours ([3]; after 24 hours): little difference
- degree of inhibition of microbial growth ([3]; honey 7.5-12.5% (w/v) or lactoferrin 3-5 mg/mL): relatively low
